The values that follow are results of earlier work, collected in PMC12787518.

Where two headings read alike, the source gives them in different places.

For one series, the target named is His31 (UniProt position 31, TIGIGHLLTKS).
The next series concerns the target Asp70 (UniProt position 70, KLFNQDVDAAV). The conditions noted are these: folded (native, Asp70-His31 salt bridge formed).

Turning to “T4 lysozyme (Enterobacteria phage T4 (Tequatrovirus T4))”, the pKa is given as 9.1 in the series with His31 (folded (native, Asp70-His31 salt bridge formed)); 6.8 in the series with His31 (unfolded (before folding, no salt bridge), inferred from the wording 'during ... folding'); 0.5 in the series with Asp70.
